According to patent WO2021175954A1 (dated 2021):
Several values for one entry are separate records, joined by “and”; a condition that tells them apart may be missing. Equal entries are not always repeated.

T1: human BTNL8/BTNL3 heterodimer expressed on HEK-293T cells (human, UniProt Q6UXE8 18-466)
T1 sequence 1: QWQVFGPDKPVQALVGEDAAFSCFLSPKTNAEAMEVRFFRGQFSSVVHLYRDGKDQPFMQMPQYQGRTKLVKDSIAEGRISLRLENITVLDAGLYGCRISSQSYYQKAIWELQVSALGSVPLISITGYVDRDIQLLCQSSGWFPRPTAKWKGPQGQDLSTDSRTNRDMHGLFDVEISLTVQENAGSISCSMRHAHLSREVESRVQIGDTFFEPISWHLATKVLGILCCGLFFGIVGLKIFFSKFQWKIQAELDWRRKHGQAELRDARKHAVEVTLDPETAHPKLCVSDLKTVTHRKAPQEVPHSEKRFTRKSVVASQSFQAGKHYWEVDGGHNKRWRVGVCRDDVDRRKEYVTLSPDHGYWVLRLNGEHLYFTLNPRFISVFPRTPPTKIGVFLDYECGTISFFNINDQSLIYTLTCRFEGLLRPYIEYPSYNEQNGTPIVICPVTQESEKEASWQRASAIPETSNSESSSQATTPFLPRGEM
T1 sequence 2: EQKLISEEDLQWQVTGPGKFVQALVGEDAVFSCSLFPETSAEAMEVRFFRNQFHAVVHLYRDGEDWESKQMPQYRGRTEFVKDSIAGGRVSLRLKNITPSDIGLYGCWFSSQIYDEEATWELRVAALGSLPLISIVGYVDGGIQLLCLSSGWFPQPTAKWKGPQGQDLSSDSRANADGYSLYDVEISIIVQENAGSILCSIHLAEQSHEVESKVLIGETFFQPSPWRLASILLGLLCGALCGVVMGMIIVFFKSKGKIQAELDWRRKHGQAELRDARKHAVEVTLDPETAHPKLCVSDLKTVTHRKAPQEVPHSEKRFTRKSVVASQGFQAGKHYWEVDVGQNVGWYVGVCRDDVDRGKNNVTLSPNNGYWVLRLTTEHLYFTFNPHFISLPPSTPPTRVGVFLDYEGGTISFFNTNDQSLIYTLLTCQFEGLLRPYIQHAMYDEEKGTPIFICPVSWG

T2: human BTNL8 expressed on cells (HEK-BTNL8 transductants); also endogenous on CaCo-2, HL-60 and primary gut … (human, UniProt Q6UX41 18-500)
T2 construct: also called Homo sapiens butyrophilin like 8
T2 sequence: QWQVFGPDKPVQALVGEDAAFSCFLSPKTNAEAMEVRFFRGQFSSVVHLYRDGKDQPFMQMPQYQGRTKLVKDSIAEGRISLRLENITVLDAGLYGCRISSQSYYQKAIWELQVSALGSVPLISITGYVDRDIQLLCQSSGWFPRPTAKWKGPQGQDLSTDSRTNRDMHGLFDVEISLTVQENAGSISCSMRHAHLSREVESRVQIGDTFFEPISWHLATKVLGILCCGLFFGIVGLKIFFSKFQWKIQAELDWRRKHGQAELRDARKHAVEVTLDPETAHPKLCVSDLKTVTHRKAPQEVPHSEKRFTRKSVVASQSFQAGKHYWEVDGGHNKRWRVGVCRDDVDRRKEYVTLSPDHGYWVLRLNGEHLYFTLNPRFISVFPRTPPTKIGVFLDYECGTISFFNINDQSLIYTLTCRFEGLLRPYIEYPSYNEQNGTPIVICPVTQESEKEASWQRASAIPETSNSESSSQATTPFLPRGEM

T3: human BTNL3 with N-terminal c-Myc tag expressed on HEK-293T cells (human, UniProt Q6UXE8 18-466)
T3 construct: whole, on cells; also called HEK-BTNL3; myc-tagged BTNL3
T3 sequence: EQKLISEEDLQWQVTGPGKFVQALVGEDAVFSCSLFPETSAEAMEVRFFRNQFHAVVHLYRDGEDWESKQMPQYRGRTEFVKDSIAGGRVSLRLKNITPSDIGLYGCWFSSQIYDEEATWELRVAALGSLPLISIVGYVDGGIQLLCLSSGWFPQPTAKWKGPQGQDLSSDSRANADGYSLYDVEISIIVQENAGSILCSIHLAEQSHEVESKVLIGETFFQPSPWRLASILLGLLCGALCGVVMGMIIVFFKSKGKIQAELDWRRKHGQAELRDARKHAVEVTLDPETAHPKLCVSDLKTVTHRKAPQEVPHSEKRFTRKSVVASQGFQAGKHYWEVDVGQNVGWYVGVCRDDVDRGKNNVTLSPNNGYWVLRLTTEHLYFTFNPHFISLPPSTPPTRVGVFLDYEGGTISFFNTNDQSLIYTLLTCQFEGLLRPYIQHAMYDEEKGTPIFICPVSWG

T4: recombinant human BTNL8 protein (BLI) (human, UniProt Q6UX41 18-238, limits assumed)
T4 construct: it may be the same rhBTNL8-Fc as in the Luminex assay; also called hBTNL8; recombinant BTNL8 protein
T4 sequence: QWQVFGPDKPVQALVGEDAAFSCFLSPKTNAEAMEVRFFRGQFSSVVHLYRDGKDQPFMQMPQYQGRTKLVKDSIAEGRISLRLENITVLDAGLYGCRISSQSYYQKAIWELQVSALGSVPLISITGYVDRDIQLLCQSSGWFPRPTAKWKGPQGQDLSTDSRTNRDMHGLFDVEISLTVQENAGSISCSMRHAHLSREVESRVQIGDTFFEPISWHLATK


Tests used:
[1] = biological target: T1, human BTNL8/BTNL3 heterodimer expressed …; assay: cell-based or functional assay
[2] = biological target: T2, human BTNL8 expressed on cells …; assay: flow cytometry on HEK-BTNL8 cells, chimeric format
[3] = biological target: T1, human BTNL8/BTNL3 heterodimer expressed …; assay: flow cytometry on HEK-BTNL3/BTNL8 cells, chimeric format
[4] = biological target: T3, human BTNL3 with N-terminal c-Myc tag …; assay: flow cytometry on HEK-BTNL3 cells
[5] = biological target: T4, recombinant human BTNL8 protein (BLI); assay: BLI, recombinant human BTNL8

Binder | IC50/EC50 of inhibition of Vy4V51TCR reporter cell activation (NFAT-GFP, CD69, TCRV51) [1] | EC50 [2] | EC50 [3] | binding result [4] | binding result [5]
chimeric anti-BTNL8 mAb mAbX1 (antibody, V domains shown, also called mAbXl) VH: QVQLQQSGAELARPGASVKLSCKASGYIFTSYGIGWVKQRTGQGLEWIGEVYPRNGHSYYNEKFKGKATLTADRSSSTAYMQLSSLTSEDSAVYFCARGGTGSQLDYWGQGTTLTVSS VL: DIQMTQSPASLSASVGETVTITCRASENIYSYLAWYQQKQGKSPHLLVYNAKTLAEGVPSRFSGSGSGTQFSLRISSLQPEDFGNYYCQHHYGTYTFGGGTKLEIK | < 0.5 µg/mL and < 3.3 nM | < 0.5 µg/mL and < 3.3 nM | < 0.5 µg/mL and < 3.3 nM |  | 
reference murine antibody mAb X1 (antibody, V domains shown, Murine monoclonal antibody, tested as hybridoma supernatant or purified from it) VH: QVQLQQSGAELARPGASVKLSCKASGYIFTSYGIGWVKQRTGQGLEWIGEVYPRNGHSYYNEKFKGKATLTADRSSSTAYMQLSSLTSEDSAVYFCARGGTGSQLDYWGQGTTLTVSS VL: DIQMTQSPASLSASVGETVTITCRASENIYSYLAWYQQKQGKSPHLLVYNAKTLAEGVPSRFSGSGSGTQFSLRISSLQPEDFGNYYCQHHYGTYTFGGGTKLEIK |  |  |  | no binding | 
chimeric anti-BTNL8 mAb mAbX4 (antibody, V domains shown) VH: EVQLQQSGAELVRPGASVKLSCTASGFNIKDDYMHWVKQRPEQALEWIGRIDPANGNTKYVPKFQDKATITADTSSNTASLQLSSLTSEDTAVYYCARWGIYDGYYYTMDSWGQGTSVTVSS VL: QNVLIQSPAIMSASPGEKVTITCSASSSVSYMHWFQQKPGTSPKLWIYSTSNLASGVPARFSGSGSGTSYSLTISRMEAADAATYFCQQRSRYPYTFGGGTKLEIK | < 0.5 µg/mL and < 3.3 nM | < 0.5 µg/mL and < 3.3 nM | < 0.5 µg/mL and < 3.3 nM |  | 
chimeric anti-BTNL8 mAb mAbX5 (antibody, V domains shown) VH: EVQLQQSGAELVRPGASIKLSCTASGFNIEDDYMHWVRQRPVQGLEWIGRIDPANGNANFAPKFQDKATITADTSSNTAYLQLSSLASEDTAVYYCTREGGLYYGNSDAMDYWGQGTSVTVSS VL: QIVLTQSPAIMSASPGEKVTITCSARSSVSYMQWIQQKPGTSPKLWIYSTSNLASGVPDRFSGSGSGTSYSLTISRMEAEDAATYYCQQRSRYPRTFGGGTKLEIK | < 0.5 µg/mL and < 3.3 nM | < 0.5 µg/mL and < 3.3 nM | < 0.5 µg/mL and < 3.3 nM |  | 
chimeric anti-BTNL8 mAb mAbX2 (antibody, V domains shown) VH: EVQLQQSGAEFVRPGASVKMSCTGSGLNIEDDYMHWVKQRPEQGLEWIGRIDPANGNTKYGPKFQDKATITADTSSNTAYLQLSSLTAEDTAVYYCTRNYYDGSLYYFDYWGQGTTLTVSS VL: QIVLTQSPAIMSASLGEEITLTCSASSSVSYMHWYQQKSGTSPKLLIYSTSNLASGVPSRFSGSGSGTFYSLTISSVEAEDAADYYCHQWSRYPYTFGGGTKLEIK | < 0.5 µg/mL and < 3.3 nM | < 0.5 µg/mL and < 3.3 nM | < 0.5 µg/mL and < 3.3 nM |  | 

Results, then the binder that gave them:

IC50/EC50 of inhibition of Vy4V51TCR reporter cell activation (NFAT-GFP, CD69, TCRV51) [1] | EC50 [2] | EC50 [3] | binding result [4] | binding result [5] | Binder
 |  |  | no binding |  | reference murine antibody mAb X5 (antibody, V domains shown, Murine monoclonal antibody, tested as hybridoma supernatant or purified from it) VH: EVQLQQSGAELVRPGASIKLSCTASGFNIEDDYMHWVRQRPVQGLEWIGRIDPANGNANFAPKFQDKATITADTSSNTAYLQLSSLASEDTAVYYCTREGGLYYGNSDAMDYWGQGTSVTVSS VL: QIVLTQSPAIMSASPGEKVTITCSARSSVSYMQWIQQKPGTSPKLWIYSTSNLASGVPDRFSGSGSGTSYSLTISRMEAEDAATYYCQQRSRYPRTFGGGTKLEIK
 |  |  | no binding |  | reference murine antibody mAb X4 (antibody, V domains shown, Murine monoclonal antibody, tested as hybridoma supernatant or purified from it) VH: EVQLQQSGAELVRPGASVKLSCTASGFNIKDDYMHWVKQRPEQALEWIGRIDPANGNTKYVPKFQDKATITADTSSNTASLQLSSLTSEDTAVYYCARWGIYDGYYYTMDSWGQGTSVTVSS VL: QNVLIQSPAIMSASPGEKVTITCSASSSVSYMHWFQQKPGTSPKLWIYSTSNLASGVPARFSGSGSGTSYSLTISRMEAADAATYFCQQRSRYPYTFGGGTKLEIK
 |  |  | no binding |  | reference murine antibody mAb X2 (antibody, V domains shown, Murine monoclonal antibody, tested as hybridoma supernatant or purified from it) VH: EVQLQQSGAEFVRPGASVKMSCTGSGLNIEDDYMHWVKQRPEQGLEWIGRIDPANGNTKYGPKFQDKATITADTSSNTAYLQLSSLTAEDTAVYYCTRNYYDGSLYYFDYWGQGTTLTVSS VL: QIVLTQSPAIMSASLGEEITLTCSASSSVSYMHWYQQKSGTSPKLLIYSTSNLASGVPSRFSGSGSGTFYSLTISSVEAEDAADYYCHQWSRYPYTFGGGTKLEIK
 |  |  |  | no binding | chimeric anti-BTNL8 mAb mAbX3 (antibody, V domains shown) VH: EVQLQQSGAELVRPGASVKLSCTASGFNIKDDYMHWVKQRPEQGLEWIGRIDPANANTKYAPKFQDKATITADTSSNTAYLHLSSLTSEDSAVYYCARNYYDGSPYYFDYWGQGTTLTVSS VL: NIVMTQSPKSMSMSVGERVTLTCKASENVVTYVSWYQQKPEQSPKLLIYGASNRYTGVPDRFTGSGSATDFTLTISSVQAEDAAGYYCHQWSRYPYTFGGGTKLEIK
